What was measured:
Test in all cases: HPLC of UDP release, initial rates, Michaelis-Menten fit
Format in all cases: biochemical, Citrus japonica
Conditions in all cases: 1.0 mM phloretin as acceptor, pH 8.0, 30 °C, donor 20-800 µM
[1] = substrate: O=c1ccn([C@@H]2O[C@H](COP(=O)(O)OP(=O)(O)O[C@H]3OC[C@@H](O)[C@H](O)[C@H]3O)[C@@H](O)[C@H]2O)c(=O)[nH]1
[2] = substrate: O=c1ccn([C@@H]2O[C@H](COP(=O)(O)OP(=O)(O)O[C@H]3O[C@H](CO)[C@H](O)[C@H](O)[C@H]3O)[C@@H](O)[C@H]2O)c(=O)[nH]1
[3] = substrate: O=c1ccn([C@@H]2O[C@H](CO[P@@](=O)(O)O[P@@](=O)(O)O[C@H]3O[C@H](CO)[C@@H](O)[C@H](O)[C@H]3O)[C@@H](O)[C@H]2O)c(=O)[nH]1

B1: FcCGT (Citrus japonica) (protein)
chain: MSDSGGFDSHPHVALIPSAGMGHLTPFLRLAASLVQHHCRVTLITTYPTVSLAETQHVSHFLSAYPQVTEKRFHLLPFDPNSANATDPFFLRWEAIRRSAHLLAPLLSPPLSALITDVTLISAVLPVTINLHLPNYVLFTASARMFSLTASFPAIVASKSTSSGSVEFDDDFIEIPGLPPIPLSSVPPAVMDSKSLFATSFLENGNSFVKSNGVLINSFDALEADTLVALNGRRVVAGLPPVYAVGPLLPCEFEKRDDPSTSLILKWLDDQPEGSVVYVSFGSRLALSMEQTKELGNGLLSSGCRFLWVVKGKTVDKEDEESLKNVLGHELMEKIKDQGLVVKNWVDQDKVLSHRAVGGFVSHGGWNSLVEAARHGVPVLVWPQFGDQKINAEAVESAGLGMWVRSWGWGTELRAKGDEIGLKIKDLMANDFLREQAKRIEEEARKAIGVGGSSERTFKELIDKWKCNNNTH
notes: recombinant purified; polypeptide Mr 53600; construct details in supplement and Li et al. 2023
[1]
  Km: 122 ± 11 µM
  kcat: 15 ± 0.8 min–1
[2]
  Km: 432 ± 26 µM
  kcat: 0.28 ± 0.01 min–1
[3]
  Km: 55 ± 2.4 µM
  kcat: 139 ± 2.5 min–1

From paper PMC11975207, “One‐Pot Hetero‐Di‐C‐Glycosylation of the Natural Polyphenol Phloretin by a Single C‐Glycosyltransferase With Broad Sugar Substrate Specificity” (Biotechnology and Bioengineering, 2025)
